# Data from patent publication US20240141071A1 (LAVA THERAPEUTICS N V, published 2024).
# T1: recombinant purified CD123-Fc fusion protein (Bio-Techne/R&D Systems) (human, UniProt P26951 19-305)
# T1 construct: Bought; also called Fc-fusion of the CD123 antigen; recombinant CD123
# T1 sequence: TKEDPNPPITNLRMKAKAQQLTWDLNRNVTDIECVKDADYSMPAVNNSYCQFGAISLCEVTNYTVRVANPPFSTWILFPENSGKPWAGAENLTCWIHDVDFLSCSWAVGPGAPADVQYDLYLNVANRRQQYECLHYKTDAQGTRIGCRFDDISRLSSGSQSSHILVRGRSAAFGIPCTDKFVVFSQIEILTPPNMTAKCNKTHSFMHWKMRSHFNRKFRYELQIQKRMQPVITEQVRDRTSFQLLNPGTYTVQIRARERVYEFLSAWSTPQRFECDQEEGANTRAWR
# T2: human CD131 (common β chain of the IL3 receptor) expressed on 293F cells (human, UniProt P32927 17-897)
# T2 sequence: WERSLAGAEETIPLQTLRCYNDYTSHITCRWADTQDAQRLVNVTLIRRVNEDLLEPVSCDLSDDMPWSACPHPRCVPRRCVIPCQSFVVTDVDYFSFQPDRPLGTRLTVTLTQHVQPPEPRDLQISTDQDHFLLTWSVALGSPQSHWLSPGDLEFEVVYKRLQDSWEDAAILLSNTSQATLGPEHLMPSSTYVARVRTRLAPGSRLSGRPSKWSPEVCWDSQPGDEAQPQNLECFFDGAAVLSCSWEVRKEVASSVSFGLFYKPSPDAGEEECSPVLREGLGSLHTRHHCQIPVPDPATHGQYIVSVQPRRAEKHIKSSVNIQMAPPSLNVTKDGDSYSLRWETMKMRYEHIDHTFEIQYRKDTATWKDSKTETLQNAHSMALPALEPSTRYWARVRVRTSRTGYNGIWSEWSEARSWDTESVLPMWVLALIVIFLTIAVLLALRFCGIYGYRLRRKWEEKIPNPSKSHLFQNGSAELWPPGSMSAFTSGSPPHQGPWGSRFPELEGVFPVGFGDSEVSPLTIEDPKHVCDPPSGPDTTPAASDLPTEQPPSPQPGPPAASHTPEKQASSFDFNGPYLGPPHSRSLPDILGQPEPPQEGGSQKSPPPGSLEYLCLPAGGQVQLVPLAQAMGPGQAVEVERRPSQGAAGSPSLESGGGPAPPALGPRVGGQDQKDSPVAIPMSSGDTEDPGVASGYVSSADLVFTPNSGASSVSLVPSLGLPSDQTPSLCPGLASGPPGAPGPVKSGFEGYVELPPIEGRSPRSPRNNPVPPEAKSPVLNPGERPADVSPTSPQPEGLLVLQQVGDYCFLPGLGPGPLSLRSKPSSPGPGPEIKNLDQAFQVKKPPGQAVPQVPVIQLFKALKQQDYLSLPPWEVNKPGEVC
# T3: Recombinant, purified CD123 antigen (extra-cellular domain; Sino Biological) (human, UniProt P26951 19-305)
# T3 construct: Bought; also called recombinant human CD123
# T3 sequence: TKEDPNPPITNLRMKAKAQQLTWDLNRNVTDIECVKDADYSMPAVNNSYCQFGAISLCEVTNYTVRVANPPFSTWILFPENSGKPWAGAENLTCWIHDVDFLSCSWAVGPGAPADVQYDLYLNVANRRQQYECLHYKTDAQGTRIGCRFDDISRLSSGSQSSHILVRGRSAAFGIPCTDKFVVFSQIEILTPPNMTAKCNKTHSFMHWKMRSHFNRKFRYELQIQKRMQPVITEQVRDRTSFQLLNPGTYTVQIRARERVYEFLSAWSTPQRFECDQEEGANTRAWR
# Key:
# [1] = target: T4, human CD123 expressed on cells (human, UniProt P26951 19-378); assay: cell-based or functional assay
# [2] = target: T1, recombinant purified CD123-Fc fusion …; assay: BLI, CD123-Fc on anti-human IgG Fc capture sensors; *low binding (>20 nM), one measurement only
# Procedure: (§1) To determine the kinetics of binding of humanized 1D2-5C8var1 variants to CD123, recombinant purified CD123-Fc fusion protein (Bio-Techne/R&D Systems) was loaded to a density of 1 nm onto anti-human IgG Fc Capture sensors (using a concentration of 5 μg/ml) for an Octet Red96e (Sartorius) instrument. Different sensors were then dipped in different concentrations of humanized 1D2-5C8var1 variants, starting at 50 nM and two-fold dilutions thereof; dilutions were made in 10× kinetic buffer (10×KB) provided by the supplier. From the obtained sensorgrams, the kinetic association- and dissociation rate constants were determined by curve fitting. The association- and dissociation rate constants, when fitting was possible, were used to calculate the affinity of the humanized 1D2-5C8var1 variants for binding to CD123. […] For reference, the non-humanized (parental) 1D2 was included in these experiments.
# [3] = target: T1, recombinant purified CD123-Fc fusion …; assay: BLI, CD123-Fc on anti-human IgG Fc capture sensors; SD 7.5
# Procedure: as §1
# BSA = target: T5, BSA (bovine, UniProt P02769); assay: ELISA, wells coated with 1% BSA (panel BSA), HRP anti-VHH detection
# T5 construct: also called bovine serum albumin, negative control coating
# Source text: FIG. 1: ELISA showing binding of all different bispecific VHHs to CD123, the Vγ9Vδ2 (GDT) TCR and BSA (as negative control). OD values are depicted; values are the mean of duplicate measurements; error bars indicate standard errors of the mean. A mono-valent anti-Vδ2 VHH was used as control for the TCR staining (“TCR control”) and a commercially available anti-CD123 antibody (“anti-CD123”) was used as control for the CD123 antigen coatings. “No AB” indicates a negative control without primary antibody.
# Recombinant, purified CD123 antigen (extra-cellular domain; Sino Biological), or an Fc-fusion of the CD123 antigen (Bio-Techne/R&D Systems) was coated to the wells of an ELISA plate (Greiner) in PBS at a concentration of 2 μg/ml. As a negative control, wells were coated with 1% (w/v) BSA. An in-house designed, produced and purified recombinant form of the extra-cellular domains of the human Vγ9 and Vδ2 TCR chains fused to a human Fc was also coated as antigen at 2 μg/ml. After coating and blocking of the wells with 2% (w/v) BSA, bispecific VHH proteins were tested for binding at a saturating concentration of 50 nM and bound VHH was detected using an HRP-labeled anti-VHH antibody (Genscript) and staining using 3,3′,5,5′-tetramethylbenzidine (TMB)/H2O2.
# [4] = target: T2, human CD131 (common β chain of the IL3 …); assay: flow cytometry on 293F cells transiently expressing CD131, AF647-labeled anti-VHH detection
# Procedure: Expression constructs for human CD123 and for the common β chain of the receptor (CD131) were purchased from Invivogen. Plasmids were transformed to chemically competent DH5α bacteria and a single colony growing on selective medium was used to inoculate a 50 ml culture to amplify both constructs. […] Either plasmid alone, or a mix of the two plasmids was used for transfection. As negative control, untransfected cells were also used for flow cytometry. A day after transfection, cells were used to test the binding of the bispecific VHH using staining in FACS. Briefly, binding of a saturating concentration of 100 nM bispecific VHH to transfected cells was detected with an AF647-labeled anti-VHH (Genscript) antibody and staining was visualized using a FACS Celesta (Becton and Dickinson).
# [5] = target: T3, Recombinant, purified CD123 antigen …; assay: phage ELISA on recombinant captured CD123 antigen
# [6] = target: T4, human CD123 expressed on cells; assay: flow cytometry on CD123 expressing C1R-CD1d cells (cell line used for immunization)
# T5 sequence (P02769 25-607 limits assumed): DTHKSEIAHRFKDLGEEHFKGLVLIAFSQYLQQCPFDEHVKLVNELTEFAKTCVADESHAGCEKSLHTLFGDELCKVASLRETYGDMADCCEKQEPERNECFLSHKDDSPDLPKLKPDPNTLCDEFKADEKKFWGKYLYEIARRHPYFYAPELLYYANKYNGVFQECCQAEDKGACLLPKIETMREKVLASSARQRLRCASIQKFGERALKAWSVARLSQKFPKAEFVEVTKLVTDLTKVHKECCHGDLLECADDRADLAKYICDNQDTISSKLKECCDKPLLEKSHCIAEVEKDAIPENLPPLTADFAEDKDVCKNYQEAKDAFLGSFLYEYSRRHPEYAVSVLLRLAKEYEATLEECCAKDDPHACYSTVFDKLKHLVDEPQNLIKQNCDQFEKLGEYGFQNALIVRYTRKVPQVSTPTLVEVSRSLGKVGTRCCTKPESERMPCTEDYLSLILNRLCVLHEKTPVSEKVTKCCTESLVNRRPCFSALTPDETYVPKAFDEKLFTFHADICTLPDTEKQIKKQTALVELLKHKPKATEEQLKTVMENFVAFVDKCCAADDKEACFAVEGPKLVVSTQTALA
binder,measurement,setting,value
"1D2-5C8var1(Y105F)-Fc (bispecific antibody, human IgG1, V domains shown) V domain 1: EVQLVESGGGLVQAGGSLRLSCAASGRTASSYVMGWFRQAPGKEREFVAVINWNGDSTYYTDSVKGRFAISRDNAKNTVYLQMNSLKPEDTAVYYCAADTRREWYRDGYWGPPARYEYDYRGQGTQVTVSS V domain 2: EVQLLESGGGSVQPGGSLRLSCAASGRPFSNYAMSWFRQAPGKEREFVSAISWSGGSTSYADSVKGRFTISRDNSKNTLYLQMNSLRAEDTAVYYCAAQFSGADFGFGRLGIRGYEYDYWGQGTQVTVSS","EC50 of THP-1 lysis, donor nr. 2",[1],0.001 nM
same,"EC50 of THP-1 target cell lysis by Vγ9Vδ2 T cells, 24 h",[1],0.001 to 0.003 nM
same,EC50 of THP-1 target cell lysis in THP-1/pDC/Vγ9Vδ2 T cell co-culture,[1],~1 pM
same,EC50 of pDC lysis relative to THP-1 cell lysis,[1],~10 fold
same,"EC50 of pDC lysis, donor nr. 2",[1],11 pM
"humanized 1D2-5C8var1 variant with 1D2 var2 (SEQ ID NO:26) (bispecific antibody, See note of m19) EVQLVESGGGLVQPGGSLRLSCAASGRTASSYVMGWVRQAPGKEREWVSVINWNGDSTYYADSVKGRFTISRDNSKNTLYLQMNSLRAEDTAVYYCAADTRREWYRDGYWGPPARYEYDYRGQGTLVTVSSGGGGSEVQLLESGGGSVQPGGSLRLSCAASGRPFSNYAMSWFRQAPGKEREFVSAISWSGGSTSYADSVKGRFTISRDNSKNTLYLQMNSLRAEDTAVYYCAAQFSGADYGFGRLGIRGYEYDYWGQGTQVTVSSAAAEPEA",Kd,[2],24.5 nM
"humanized 1D2-5C8var1 variant with 1D2 var4 (SEQ ID NO:28) (bispecific antibody, See note of m19) EVQLVESGGGVVQPGGSLRLSCAASGRTASSYVMSWFRQAPGKEREWVAVINWNGDSTYYADSVKGRFTISRDNSKNTLYLQMNSLRAEDTAVYYCAADTRREWYRDGYWGPPARYEYDYRGQGTTVTVSSGGGGSEVQLLESGGGSVQPGGSLRLSCAASGRPFSNYAMSWFRQAPGKEREFVSAISWSGGSTSYADSVKGRFTISRDNSKNTLYLQMNSLRAEDTAVYYCAAQFSGADYGFGRLGIRGYEYDYWGQGTQVTVSSAAAEPEA",Kd,[3],20 nM
"humanized 1D2-5C8var1 variant with 1D2 var6 (SEQ ID NO:30) (bispecific antibody, See note of m19) EVQLVESGGGLVQPGGSLRLSCAASGRTASSYVMGWVRQAPGKGLEWVSVINWNGDSTYYADSVKGRFTISRDNSKNTLYLQMNSLRAEDTAVYYCAADTRREWYRDGYWGPPARYEYDYRGQGTLVTVSSGGGGSEVQLLESGGGSVQPGGSLRLSCAASGRPFSNYAMSWFRQAPGKEREFVSAISWSGGSTSYADSVKGRFTISRDNSKNTLYLQMNSLRAEDTAVYYCAAQFSGADYGFGRLGIRGYEYDYWGQGTQVTVSSAAAEPEA",Kd,[2],29.1 nM
"humanized 1D2-5C8var1 variant with 1D2 var8 (SEQ ID NO:32) (bispecific antibody, See note of m19) EVQLVESGGGLVQPGGSLRLSCAASGRTASSYVMSWFRQAPGKGLEWVAVINWNGDSTYYADSVKGRFTISRDNSKNTVYLQMNSLRAEDTAVYYCAADTRREWYRDGYWGPPARYEYDYRGQGTLVTVSSGGGGSEVQLLESGGGSVQPGGSLRLSCAASGRPFSNYAMSWFRQAPGKEREFVSAISWSGGSTSYADSVKGRFTISRDNSKNTLYLQMNSLRAEDTAVYYCAAQFSGADYGFGRLGIRGYEYDYWGQGTQVTVSSAAAEPEA",Kd,[2],44.1 nM
"humanized 1D2-5C8var1 variant with 1D2 var10 (SEQ ID NO:34) (bispecific antibody, See note of m19) EVQLVESGGGLVQPGGSLRLSCAASGRTASSYVMGWFRQAPGKEREFVSVINWNGDSTYYADSVKGRFTISRDNSKNTLYLQMNSLRAEDTAVYYCAADTRREWYRDGFWGPPARYEYDYRGQGTQVTVSSGGGGSEVQLLESGGGSVQPGGSLRLSCAASGRPFSNYAMSWFRQAPGKEREFVSAISWSGGSTSYADSVKGRFTISRDNSKNTLYLQMNSLRAEDTAVYYCAAQFSGADYGFGRLGIRGYEYDYWGQGTQVTVSSAAAEPEA",Kd,[3],10.4 nM
"1A3-5C8var1 bispecific VHH (bispecific antibody, Same format as 1D2-5C8var1) EVQLVESGGGLVQAGGSLRLSCAASGRAINTYAMAWFRQAPGKERDFVATISYSGGTTDYAGSVKGRFTISRDNAENTVYLQMNSLKPEDTAVYYCAARDRYNPLARNYNYWGQGTQVTVSSGGGGSEVQLLESGGGSVQPGGSLRLSCAASGRPFSNYAMSWFRQAPGKEREFVSAISWSGGSTSYADSVKGRFTISRDNSKNTLYLQMNSLRAEDTAVYYCAAQFSGADYGFGRLGIRGYEYDYWGQGTQVTVSSAAAEPEA",binding result,BSA,no binding (tested: 50 nM (single concentration))
same,EC50 of THP-1 target cell lysis by Vγ9Vδ2 T cells,[1],~0.05 nM
same,binding result,[4],no binding (tested: 100 nM (single concentration))
anti-CD123 VHH 1A3 (VHH) VHH: EVQLVESGGGLVQAGGSLRLSCAASGRAINTYAMAWFRQAPGKERDFVATISYSGGTTDYAGSVKGRFTISRDNAENTVYLQMNSLKPEDTAVYYCAARDRYNPLARNYNYWGQGTQVTVSS,binding result,[5],binds
same,binding result,[6],binds
"anti-CD123 VHH 1D2 (VHH, also called 1D2 VHH; lead anti-CD123 antibody) VHH: EVQLVESGGGLVQAGGSLRLSCAASGRTASSYVMGWFRQAPGKEREFVAVINWNGDSTYYTDSVKGRFAISRDNAKNTVYLQMNSLKPEDTAVYYCAADTRREWYRDGYWGPPARYEYDYRGQGTQVTVSS",binding result,[5],binds
same,binding result,[6],binds
